Experiment [1] deals with T1, Human TROP2 ECD (31-274 AA), biotinylated (human, UniProt P09758 31-274, biotinylated (site not stated)).
T1 construct: also called tumor-associated calcium signal transducer 2; Human TROP2-biotin
T1 sequence: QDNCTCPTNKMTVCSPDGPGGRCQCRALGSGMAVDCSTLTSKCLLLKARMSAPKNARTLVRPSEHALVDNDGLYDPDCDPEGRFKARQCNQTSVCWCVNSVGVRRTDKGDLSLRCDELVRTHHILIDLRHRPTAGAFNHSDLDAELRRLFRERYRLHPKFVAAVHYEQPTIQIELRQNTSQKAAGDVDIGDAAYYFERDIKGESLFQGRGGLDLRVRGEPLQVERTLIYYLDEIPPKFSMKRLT
Kind of experiment: ELISA on immobilized TROP2. Background: An ELISA detects its analyte on a solid surface through an enzyme-linked reagent.

The target in experiment [2] is T1, Human TROP2 ECD (31-274 AA), …. Kind of experiment: ELISA on immobilized TROP2. The source holds these as a separate data set.
Experiment [3] concerns the target T2, TBD-1 wt.
T2 construct: Fab; the heavy chain entry is VH-CH1; also called wild-type anti-TROP2 Fab (hRS7); TROP2 Fab
In words: competition ELISA, peptide vs Fab binding to captured biotin-TROP2.

Experiment [4] has as its target T3, TBD-6 (LC I93A).
T3 construct: Fab; also called LC I93A mutant
The description is as above.

Experiment [5] deals with T4, TBD-11 (HC R98A).
T4 construct: Fab; also called HC R98A mutant
Described as above.

Experiment [6] deals with T5, TBD-17 (HC S104A).
T5 construct: Fab; also called HC S104A mutant
Described as above.

In experiment [7] the target is T6, TBD-21 (HC F108A).
T6 construct: Fab; also called HC F108A mutant
The experiment is described as above.

Experiment [8] has as its target T7, TBD-22 (HC D109A).
T7 construct: Fab; also called HC D109A mutant
The description is as above.

The target of experiment [9] is T2, TBD-1 wt. The experiment is described as above. The source holds these as a separate data set.
In experiment [10] the target is T3, TBD-6 (LC I93A). Described as above. This is another data set of the same source.
In experiment [11] the target is T4, TBD-11 (HC R98A). Described as above. This is another data set of the same source.
Experiment [12] addresses T5, TBD-17 (HC S104A). Described as above. This is another data set of the same source.
For experiment [13], the target named is T6, TBD-21 (HC F108A). Described as above. The source holds these as a separate data set.
Experiment [14] addresses T7, TBD-22 (HC D109A). The description is as above. The source holds these as a separate data set.

Substitutions are numbered along the chain they refer to. In names and notes the source's numbering stands. Read-outs that look alike come from different tables or passages of the source. Where no end group is shown, it is not given here.

B1: PC-12 (bispecific antibody)
light: GGVDFCGLYHWPICYQGGGGSGGLSGRSDAGSPLGLAGSGGSDIQLTQSPSSLSASVGDRVSITCKASQDVSIAVAWYQQKPGKAPKLLIYSASYRYTGVPDRFSGSGSGTDFTLTISSLQPEDFAVYYCQQHYITPLTFGAGTKVEIKRTVAAPSVFIFPPSDEQLKSGTASVVCLLNNFYPREAKVQWKVDNALQSGNSQESVTEQDSKDSTYSLSSTLTLSKADYEKHKVYACEVTHQGLSSPVTKSFNRGEC
heavy: not shown
notes: anti-TROP2 R98A
The molecule B1 registered an EC50 in experiment [1] of 352 nM.

B2: PC-20 (bispecific antibody)
light: B1 light with G7A
heavy: not shown
notes: anti-TROP2 D109A
Turning to B2, the EC50 in experiment [2] amounted to 74.3 nM.

B3: PC-16 (bispecific antibody)
light: B1 light with V3I, G7A, L8I, H10Q, I13V, Y15R, Q16S
heavy: not shown
notes: anti-TROP2 D109A
For the molecule B3, it took 69.8 nM to reach a half-maximal effect in [2] (EC50).

B4: PC-24 (bispecific antibody)
light: B1 light with G17V
heavy: not shown
notes: anti-TROP2 D109A
In experiment [2], B4 showed an EC50 of 87.5 nM.

B5: PC-22 (bispecific antibody)
light: B1 light with G17V
heavy: not shown
notes: anti-TROP2 R98A
For B5, in [2], a half-maximal effect (EC50) was put at 142 nM.

B6: PC-14 (bispecific antibody)
light: B1 light
heavy: not shown
notes: anti-TROP2 F108A
In experiment [1], B6 returned an EC50 of 333 nM.

B7: PC-26 (bispecific antibody)
light: B1 light with G7A, L8I, H10S, Y15K, Q16I
heavy: not shown
notes: anti-TROP2 D109A
B7 registered an EC50 in [2] of 54.3 nM.

For the molecule VDFCYLYSWPICTK (cysteine pairing not given here; also: biotinylated, site not given here) [Peptide-40], the IC50 with TBD-1 wt [3] was 3630 nM; with TBD-6 (LC I93A) [4], 2280 nM; with TBD-11 (HC R98A) [5], 14600 nM; with TBD-17 (HC S104A) [6] it was 7260 nM; in the experiment with TBD-21 (HC F108A) [7], 10000 nM; in the experiment with TBD-22 (HC D109A) [8] it was 580 nM.

As for EDFCYWYQWPICSD (cysteine pairing not given here; also: biotinylated, site not given here) [Peptide-35], the IC50 was determined as 4400 nM with TBD-1 wt [3]; 3200 nM with TBD-6 (LC I93A) [4]; 21900 nM in the experiment with TBD-11 (HC R98A) [5]; 9400 nM with TBD-17 (HC S104A) [6]; 19200 nM with TBD-21 (HC F108A) [7]; 870 nM with TBD-22 (HC D109A) [8].

Consider VDFCSIYHWPVCYV (cysteine pairing not given here; also: biotinylated, site not given here) [Peptide-38], for which the IC50 came out at 1630 nM with TBD-1 wt [3]; 520 nM in the experiment with TBD-6 (LC I93A) [4]; 4420 nM with TBD-11 (HC R98A) [5]; 2030 nM with TBD-17 (HC S104A) [6]; 3540 nM in the experiment with TBD-21 (HC F108A) [7]; 170 nM with TBD-22 (HC D109A) [8].

In the case of IDFCAVYKWPVCQV (cysteine pairing not given here; also: biotinylated, site not given here) [Peptide-62], the IC50 turned out to be 1470 nM with TBD-1 wt [3]; 550 nM in the experiment with TBD-6 (LC I93A) [4]; 4870 nM with TBD-11 (HC R98A) [5]; 1420 nM with TBD-17 (HC S104A) [6]; 3010 nM with TBD-21 (HC F108A) [7]; 80 nM in the experiment with TBD-22 (HC D109A) [8].

With PDFCYMYNWPVCVT (cysteine pairing not given here; also: biotinylated, site not given here) [Peptide-33], the IC50 with TBD-1 wt [3] came to 5600 nM; in the experiment with TBD-6 (LC I93A) [4], 2160 nM; with TBD-11 (HC R98A) [5] it was 18000 nM; in the experiment with TBD-17 (HC S104A) [6], 6010 nM; with TBD-21 (HC F108A) [7], 15700 nM; in the experiment with TBD-22 (HC D109A) [8] it was 330 nM.

With VDFCYQYGWPICSR (cysteine pairing not given here; also: biotinylated, site not given here) [Peptide-36], the IC50 with TBD-1 wt [3] was determined as 5110 nM; with TBD-6 (LC I93A) [4] it was 3800 nM; in the experiment with TBD-11 (HC R98A) [5], 19800 nM; with TBD-17 (HC S104A) [6], 14800 nM; with TBD-21 (HC F108A) [7] it was 19900 nM; in the experiment with TBD-22 (HC D109A) [8] it was 1720 nM.

VDFCKIYSWPVCHQ (cysteine pairing not given here; also: biotinylated (site not given here)) [Peptide-25]: the IC50 was found to be 2580 nM with TBD-1 wt [9]; 1030 nM with TBD-6 (LC I93A) [10]; 8100 nM in the experiment with TBD-11 (HC R98A) [11]; 3040 nM in the experiment with TBD-17 (HC S104A) [12]; 6450 nM with TBD-21 (HC F108A) [13]; 140 nM in the experiment with TBD-22 (HC D109A) [14]. The IC50 with TBD-1 wt [3] is 3030 nM; in the experiment with TBD-6 (LC I93A) [4], 1280 nM; with TBD-11 (HC R98A) [5] it was 18000 nM; in the experiment with TBD-17 (HC S104A) [6], 3750 nM; in the experiment with TBD-21 (HC F108A) [7], 6730 nM; with TBD-22 (HC D109A) [8], 290 nM.

Regarding VDFCGLYHWPICYQVD (cysteine pairing not given here; also: biotinylated, site not given here) [Peptide-39], the IC50 worked out at 460 nM with TBD-1 wt [3]; 670 nM with TBD-6 (LC I93A) [4]; 1640 nM with TBD-11 (HC R98A) [5]; 1690 nM with TBD-17 (HC S104A) [6]; 2230 nM with TBD-21 (HC F108A) [7]; 140 nM with TBD-22 (HC D109A) [8].

In the case of VDFCGLYHWPICYQVY (cysteine pairing not given here; also: biotinylated, site not given here) [Peptide-41], the IC50 was 640 nM with TBD-1 wt [3]; 580 nM with TBD-6 (LC I93A) [4]; 1510 nM in the experiment with TBD-11 (HC R98A) [5]; 1550 nM with TBD-17 (HC S104A) [6]; 1500 nM in the experiment with TBD-21 (HC F108A) [7]; 110 nM with TBD-22 (HC D109A) [8].

Turning to IDFCMLYNWPICAG (cysteine pairing not given here; also: biotinylated, site not given here) [Peptide-3], the IC50 was 340 nM in the experiment with TBD-1 wt [9]; 370 nM with TBD-6 (LC I93A) [10]; 1480 nM with TBD-11 (HC R98A) [11]; 1010 nM with TBD-17 (HC S104A) [12]; 2640 nM with TBD-21 (HC F108A) [13]; 90 nM in the experiment with TBD-22 (HC D109A) [14]. Also, the IC50 is 430 nM with TBD-1 wt [3]; 530 nM with TBD-6 (LC I93A) [4]; 2720 nM with TBD-11 (HC R98A) [5]; 1480 nM with TBD-17 (HC S104A) [6]; 2000 nM with TBD-21 (HC F108A) [7]; 120 nM with TBD-22 (HC D109A) [8].

For VDFCYLYNWPVCSK (cysteine pairing not given here; also: biotinylated, site not given here) [Peptide-37], the half-inhibitory concentration (IC50) in the experiment with TBD-1 wt [3] is 6280 nM; with TBD-6 (LC I93A) [4] it was 2600 nM; with TBD-11 (HC R98A) [5] it was 16600 nM; with TBD-17 (HC S104A) [6] it was 4080 nM; with TBD-21 (HC F108A) [7] it was 15500 nM; in the experiment with TBD-22 (HC D109A) [8], 370 nM.

By EC50 is commonly meant the concentration that produces a half-maximal response. Lower therefore signals an effect from little substance. Usually IC50 stands for the concentration that inhibits the measured activity by half.

The values are drawn from patent publication US20230357429A1 (JANUX THERAPEUTICS, published 2023).
